Source: article PMC12607626, “Separation of Pseudomonas aeruginosa type IV pilus-dependent twitching motility and surface-sensing responses” (mBio, 2025)

Target: the molecule itself
Test: crystal structure; X-ray, 4.5 Å; sitting-drop vapour diffusion at 20 °C; 12.5 µM ATP in the final buffer, no nucleotide density; four protomers in the asymmetric unit, two nearly identical C3 hexamers identified from the crystal packing

B1: PilU (Pseudomonas aeruginosa type IVa pilus retraction ATPase paralog of PilT) (enzyme)
chain: MEFEKLLRLMVEKGGSDLFITAGVPPSMKVNGRVMPVTKTPLSPEQTRETVLGVMNEQQRRDFAENHECNFAISARGIGRFRVSAFYQRNLVGMVLRRIETNIPTLEELKLPEILKKLALTKRGLVIFVGATGTGKSTSLAAMIGYRNKNSTGHIISIEDPIEYIHQHQGCIVTQREVGLDTDSFEVALKNTLRQAPDVIMIGEVRSRETMDHAVAFAETGHLCLATLHANNANQALERIIHFFPADRHGQVWMDLSLNLKAIVAQQLVPTPDGKGRRAVIEVLLNTPLAADLIRKGEVHELKPLMKRSTEQGMQTFDQALYQLYTQGEITYEDALAHADSANDLRLMIKLGSESDADHLSSLTQGLSLEITDDDPAGRRFR
notes: PilU, P. aeruginosa; the pilU gene was amplified by PCR and cloned into pET28a; the 30 C-terminal residues were not resolved in the crystal; also called PilU hexamer; source: E. coli BL21 (DE3), pET28a, purified (HiTrap Chelating HP, size-exclusion chromatography)
  stoichiometry N: 6
